Measured values published in the DeepSol protein solubility set.

Assay: soluble on expression in E. coli; label from the status in PepcDB or PDB records

For “MGSDKIHHHHHHMIDLSTDYLGLKLKNPLVPSASPLSRNLDNALRLEDAGAAALVMYSLFEEELRAEDAMLDRFLTCPDFGHSEAANFLPSAPFEDGLERYVSQLQKLKARLGIPVIASLNGVSRSGWVELGRALEEAGADALELNVYHVAAEMWENGEAVEARYLSLLRDLRHAVKLPIVMKLSPFFSSLPNFVKRLEHAGAQGVVLFNRFYQPDIDLDTLCVVDRLHLSYPDEALLRIRWLSILHGRTGLTLAATGGVHSHDEALKMLLVGADVIHLASCLLQHGPARLTRILQDIERWMGERDYASVAQLKGSMSQKNLLDPAAMARLSYLRVLDSFSPQPGVWS”, the “soluble on expression in E. coli” value was “not soluble”.
With “MGHHHHHHSHRRQHPLPLLLLRHLRPQAHREPPQVYTSSQPLRVGYYETDNYTMPSPAMRRAVLETKQSLEAAGHTLVPFLPSNIPHALETLSTGGLFSDGGHTFLQNFKGDFVDPCLGDLVSILKLPQWLKGLLAFLVKPLLPRLSAFLSNMKSRCTAKP” the “soluble on expression in E. coli” value was “not soluble”.
For “MAHHHHHHMEAPAVYCVSDAAASLTMADDWIRGLSRQRHRSMCEVDAVFPVSRTRERTEMDEAETASSYSDSVTSVPTNRLQLHMMHRRRLYKQYAMDLSMWADTHSYYQLMMWCHDHHVFVHPTVEMVRHRSAFREHVFEVKEDVDAFTPLLAIPEDLIIGFKDANTESSDPSASTDDRNNLYDAKREAEFHKLNTGENSNADICQFFFASLGMIVSDLITAKSSPLTDPRHLFAELLSKVPTLQNAPYFDEEVVFDSNETCLADVLLQMIRNYINGGPLVNKVPLHELRWAVSVSLSHSTPLSIGAVRSIGIVPVVHLFPHGGTATNAYVVARTSRDKSAEKMAIFFREKFGYDFQGQANAKWIYVVPERPLKAGEAINLQVMAPVCEKDSEAEQMWRLSCGTVPESYMSSAQASARQEAATRFIVEQGEALWKASRAKRLL”, the “soluble on expression in E. coli” value was “not soluble”.
For “MAHHHHHHMSRCNVAACFFPQQYGCETECGSESLLRAVLGDNANRVDSVMNHCTPHCVAAAIARCIREGPNFPHHLHVIAGVGRFKEIMIACLIDMIPQPLFSIDVPLQCMMFASEEGSVVCKLFDSESMPSLLSTANDMEQIFLVSLRHERRMVTIVAVEQLSTSLVASMLGSVCSNIWVLLSGLHTTEREMSLLNEAMAIRDAVREFSSAVGAVSTELHVEEESSAHATPPVAVEVVHPSAPSLKGVEDNDTAVVVSSAEAETVSDTQSVARRLEESQCEVNQLRKKLEEAEDTIHRFRAAERRAEEEKKNLSLAESLAATTPVATSERAESLFCEGTGGLDSQNSKGNENWVGERTVVATQRELSAMQAKLSELQRCLVETSEGNLGRVREFQCRELEWQRELRRRTEERDVALQECERLRGATPCHGSQEKVFSRAVETPHAHQEQELDNLLSRIRSITAAHGNAAHSEFPMLFSSQRSAGGAGQPLSPRGDYRRFASLERYRS”, the “soluble on expression in E. coli” value was “not soluble”.
For “GPGSMPPKKKVERKEEQVFVEENGSYVHQREMARYTGGVRRLTDSNFCCRHGQGTYSSPLIHYEGNWSEDEMHGNGTLRFLVSGDSYTGQFVHGVMEGCGTYIWASGAMYDGGWRGNRMHGLGTYTDVGGKVWSGKFYNGSGPGLTPCVTTGGGVAAADKRDVLKDEKEG”, the “soluble on expression in E. coli” value was “not soluble”.
For “PKATAQMEGRLQEFLTAYAPGARLALADGVLGFIHHQIVELARDCLAKSGENLVTSRYFLEMQEKLERLLQDAHERSDSEEVSFIVQLVRKLLIIISRPAR”, the “soluble on expression in E. coli” value was “soluble”.
For “MAHHHHHHMSCITSPPQPSSPPRMDAHTCVCIGITMPPAARQRKGARRSLTLPLLSLPWRKIRDQEGGAVCAGPVQQLPWKVRAEAALQSRPSPPAIRRRYLALSLPMRTSAAAAVAAAAHAGVRALHTATGVAGNSCGASPRATVALPPHSGLTLPSFTRCGASSAAFITRAHSVGCCGCAAAVKQHRLYSSHGCSSNSSGSFADSSRPYVPGQAVQETYPIIQLPARSLWCRQYALDARRVAQGEYAGLISQVREARHYYQYPSMSAPQTGWNVQMFTLFDNSVFINPVNLDEEVWRAEAARQGMSWVAFEEEKMRELRAEGLTGFAWEPCASSGFLLHYIERPLTVRMRALDEHGKPFTVTLDKMRARMALHELDHLQGVLFTRRVVDTDHVVPMEGFVTMSDWSDDYPSLEARSTFLYTIFTPPYHFVSDAVPDGNLLDRKFEDGIYPGCEQDRQQRIELTAMEEIQRNVWRKEKAKRKEGGQQCGRGDVTAVEDDDGSGAAGAR”, the “soluble on expression in E. coli” value was “not soluble”.
In the case of “MGSDKIHHHHHHEKKDKKENDTSAVQATETDCTAAELVTTEPEGEITISEMIDQRIKEEGKIMIYRMCIAESNTPVEITEDLKVKIISYDGDKLKGYKNPDDFLMETRLGDIIHNKVDYSTYNIGTYGGNWKRHRYVSGGDEKYVEEEGYVQREITTDDSGNNAQLETLYSYSKGTLYSRDAGSKEWNQTEKEDSLDIVSFGTFERIKLDGKTYMTFCVRDNLNLIEYDIIPDNKFTENKTVVYDTPGTEKTTVNTVDYLKEYQAVPKEELEQMIVFPGSKKAESSQAAD”, the “soluble on expression in E. coli” value is reported as “not soluble”.
For “MAKEWFTVKECLGLPGFPGSEPAVRERLYKYSEGKEGVRRKRVKSKAEEFHISVFPLYVHRYLDDSGEEPTPEPISLQEAEPEDIWEMMFRLLTPEQRKQVTGRFKVRGMKAVFPFLFDDTPPR”, the “soluble on expression in E. coli” value was “not soluble”.
In the case of “SLFFFASQIVREENKLLDLLFNLFKDFNSFKLEVKRRDKNFAENSSNFKKYLAVKLFEKYQLKGVINNPEIIANIEILKEHFLVFTER”, the “soluble on expression in E. coli” value is reported as “not soluble”.
With “MAEATDVVLVGGGIMSATLGVLLKELEPSWEITLIERLEDVALESSNAWNNAGTGHSALCELNYAPLGANGIIDPARALNIAEQFHVSRQFWATLVAEGKLEDNSFINAVPHMSLVMNEDHCSYLQKRYDAFKTQKLFENMEFSTDRNKISDWAPLMMRGRDENQPVAANYSAEGTDVDFGRLTRQMVKYLQGKGVKTEFNRHVEDIKRESDGAWVLKTADTRNPDGQLTLRTRFLFLGAGGGALTLLQKSGIPEGKGYGGFPVSGLFFRNSNPETAEQHNAKVYGQASVGAPPMSVPHLDTRNVDGKRHLMFGPYAGFRSNFLKQGSLMDLPLSIHMDNLYPMLCAGWANMPLTKYLLGELRKTKEERFASLLEYYPEANPDDWELITAGQRVQIIKKDSEKGGVLQFGTEIVAHADGSLAALLGASPGASTAVPLMIRLMHQCFPERAPSWEDRLKELVPGYGIKLNENPERADEIIAYTAKVLDI” the “soluble on expression in E. coli” value was “not soluble”.
With “MKFSDFFHAWLHESYYKNAVSIGKNGDFFTAVSVGNLFGTLLAKHFLNLIDEKILKPPLELVEIGANEGYLSRDFLAALLELRPEIFSQISFFIIEPHEKLRTLQKKTLEGVEFTHKNSLKECHFKNAFFFCNELFDSFTCELIDHDKMAFVENFKLIFKNMDENLITKCKALNLTKGELSLELENFFKDLNQTCERFIFAGFDYGTLNPQSFSLRIYQKHEVFSPFEVSLKDFFGKSDLTYNVNFTHLQKLIKEYDFKPLAFKKQSLAFMDFGFEDLLEYAKNKNIKTYESFLSQAKILFFNFDEKFHFFEFQKNMGHHHHHHSH” the “soluble on expression in E. coli” value was “soluble”.
For “MSLKNISLAMLARQIGVGVATVDRVLNERGGVSPQTTRKVLQAAREAGLKRILPEEHRFPWQIEVFLSSNDSFFFPQLAQDFAAVADSLGYRRLTLHRTFVPESQPTTLARRIARSCQQRQGIIVFGNDHPAVHDALRRCREAGVPAITLATDLPGADRLCHVGINQLQAGRTAGLMLGRMTPRPGEVLMVSGRQDYSAHRLRIQGFREVLSQRFPHLQLSDVLAGEERREQITRLVEQALCRSRNIVGIYNTGLGNTQIAEALARHRREGDVCWITHERYNTTRQQLAKGSLALTLDQNTRQHAQLAIDLMLRHLESGYQPQTYADGKVDFILYSAENVDEGHHHHHH”, the “soluble on expression in E. coli” value was “soluble”.
With “MKKLIINYTELVDYLLENRGMDGYIYFYESMETEQGIVISFSTFDTGDSIYRMKFCPSDHGYDTSLEPGSYSQSEYGTSFEEEDVEGYIAGLDEIIADKYKEFYDEDVEVVFVD” the “soluble on expression in E. coli” value was “soluble”.
For “MGQSEPIVLVIFTNKDNKSDKPNDKLISETAKSVMKEFAAGSKNAAKELNDLEKKYNAHIGVYALDTKSGKEVKFNSDKRFAYASTSKAINSAILLEQVPYNKLNKKVHINKDDIVAYSPILEKYVGKDITLKALIEASMTYSDNTANNKIIKEIGGIKKVKQRLKELGDKVTNPVRYEIELNYYSPKSKKDTSTPAAFGKTLNKLIANGKLSKENKKFLLDLMLNNKSGDTLIKDGVPKDYKVADKSGQAITYASRNDVAFVYPK”, the “soluble on expression in E. coli” value was “soluble”.
In the case of “MEVDTASSRHSTVLKRKATDSINEILNYGQSSTSPQKRCKKAASLHKYRDMETYHKIIKTYKAPTWYGCAVSPRDLADYGWACVKKDCVKCIECEQYLSTVLPNICKVSFNVYNSSLQDIHEKMTTAHRTTCKLRCGAPPFRIVEPTAKEVMDGIQRRLSDSKKIIDEDLKADIPSDVNLPKIEGVPEQLIYVAALGWHVSMPKRGSLLFGCDNCARELAIRCGNKFDPIHNHERWCPRIEMDDHGEPSWQSDLNTVLNTKNHVTNRYTGSSIFKEAYAARRLLDSSLSTIITPNYI”, the “soluble on expression in E. coli” value is reported as “not soluble”.
For “MFRSSLTHLQAVSRVFIMGGHITPFVGKGSKLFIDKKHPDFGKKQNMTLEEILATTVQHTIENTGLNGKEDIVDQVVVGNFLGELFSSQGHLGPAAIGSLTYGQAGAKNPLMYKPAMRVEGACASGGLAVVSATNALKAGSADIALAVGVEVQTTATARVGGDYLARAADYQRQRKLDDFTFPCLFAKRMKYIAEHNHFTMEDTARVAAKAYANGNRNPLAHMHTRKLSFEQCNGEDPSNVKFLGNETYKEYLRMTDCSQVSDGGAGVVLANEEGLKKMGLSPNDSRLVEIKSIACAVSNLYEDPDDACCMFTSRQAAQKALSMANVKPSDLNVAEVHDCFTIAEMLMYEALGIAEYGHAKDLIRNGETTLEGRIPVNTGGGLLSFGHPVGATGIKQVMEVYRQMKGQCGAYQMKKIPALGATLNMGGDDKTAVSAVLQNI”, the “soluble on expression in E. coli” value was “not soluble”.
In the case of “MPMVVAKRNARERTRVHTVNQAFLVLKQHLPSLRQFTKRVSKLRILNAAITYIDTLLKLIQSSEAVPQSVISATLGPIVPTPVRAVHKISKPDTVISQPIRPLAPVLPRHETYLPAPIAATCAPDHSLVDYRSTFASSLAPPVPMQMPSVFSPQPTFPYMKSLLDYPTYFYQPSTAPPPPPAPTAPQSHLIVNNQLVPMPSYQCF”, the “soluble on expression in E. coli” value is reported as “not soluble”.
With “MSLRYIVVGASAAGISGAKTLRELDKDAEIILVSKDENVYSRCILHHYISGHRDIEALDFTDRDFFEKYNIEWKKGLEVKAIDDREHVIVLSNGESLKYDKILLATGASAFIPPVENLREAKNVVGLRNLEDAIKIKEEAEKVKNVVVLGAGLVGIDAIAGLAFKDLNVTLVEMGDRVLPIQLDKYASSKYEKRFEDAGVKLKLGVRAEKVLIDENKNPKALLINTGEEIPCELIIVATGVRSNVAFLKDSSIETDRFGLIINEKGETNARDVYGAGDITGRNPIWPTAVKEGIIAANNMVGNEIFMEDFFGSKNTMNFLGLTTMSLGVVNAPDDSYTEEIDISGENYKKIIHKDGKIYGAIIQGDLSYAGVLTQLIKEKIHVSKVKKPLFEIDYADFFNIKENLEYTYEGHHHHHH” the “soluble on expression in E. coli” value was “soluble”.
In the case of “MTSLQLSIVHRLPQNYRWSAGFAGSKVEPIPQNGPCGDNSLVALKLLSPDGDNAWSVMYKLSQALSDIEVPCSVLECEGEPCLFVNRQDEFAATCRLKNFGVAIAEPFSNYNPFLEHHHHHH”, the “soluble on expression in E. coli” value is reported as “not soluble”.
For “FLETLAKVKKIFIDKTGTLTQKEVLLKEKIIYEEFDGRLLKSLLKVREHLAHSAILKSLDGDEVSLEKIEFFAHGLKASYQNETLLVGSLKFLGSMGVDIPMKESANIMVGFAKNETLCALFILEERLKANAKEVVQALQNKGLELEILSGDNESSVKECAKKLGISNYHAHLTPEDKAQTISSYKGVCAMVGDGNNDALALKQASVSLGFEKSALSKSACDILLLEEDLSLLKKAFDNAQKVYQVVLQ”, the “soluble on expression in E. coli” value was “not soluble”.
With “MSDMSDLEDDQTGHCGSGEHSGPFDPKRHAREQHNALERRRRDNIKDMYTSLREVVPDANGERVQASRAVILKKAIESIEKGQSDSATLSVDVAEQESKNAKLREEIARLKAKKDPSSSQSIIQ” the “soluble on expression in E. coli” value was “not soluble”.
